Laboratory results taken from patent US20210171647A1 (WUXI BIOLOGICS SHANGHAI, published 2021).

Experiments:
Assay in all cases: ELISA, antibody coated, OX40-ECD.His mutant supernatant; relative to silent alanine substitutions;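 further: captured OX40 mutant protein detected with HRP-labelled anti-His antibody, absorbance read-out, scaled to the mean signal of control mutants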
human OX40-ECD.His R108A = target: T1, human OX40-ECD.His R108A (human, UniProt P43489 29-214)
T1 construct: extracellular domain; not shown: C-terminal His-tag
T1 sequence (looked up): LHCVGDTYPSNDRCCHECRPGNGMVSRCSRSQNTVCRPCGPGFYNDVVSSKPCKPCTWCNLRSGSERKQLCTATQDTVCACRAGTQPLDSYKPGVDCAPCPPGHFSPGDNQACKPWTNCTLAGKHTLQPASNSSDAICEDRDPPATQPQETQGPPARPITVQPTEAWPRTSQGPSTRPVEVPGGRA

human OX40-ECD.His T113A = target: T2, human OX40-ECD.His T113A (human, UniProt P43489 29-214)
T2 construct: extracellular domain; not shown: C-terminal His-tag
T2 sequence (looked up): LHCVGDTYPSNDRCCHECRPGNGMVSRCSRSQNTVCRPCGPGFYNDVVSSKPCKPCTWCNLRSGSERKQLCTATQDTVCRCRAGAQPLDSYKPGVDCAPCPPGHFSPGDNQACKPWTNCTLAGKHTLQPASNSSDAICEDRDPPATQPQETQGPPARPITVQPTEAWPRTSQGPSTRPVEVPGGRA

human OX40-ECD.His V106A = target: T3, human OX40-ECD.His V106A (human, UniProt P43489 29-214)
T3 construct: extracellular domain; not shown: C-terminal His-tag
T3 sequence (looked up): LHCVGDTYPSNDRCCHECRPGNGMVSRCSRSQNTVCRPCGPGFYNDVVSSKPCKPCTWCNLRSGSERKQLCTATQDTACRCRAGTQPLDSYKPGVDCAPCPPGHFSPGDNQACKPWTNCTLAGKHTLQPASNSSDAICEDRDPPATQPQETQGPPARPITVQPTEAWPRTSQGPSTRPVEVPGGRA

human OX40-ECD.His P157A = target: T4, human OX40-ECD.His P157A (human, UniProt P43489 29-214)
T4 construct: extracellular domain; not shown: C-terminal His-tag
T4 sequence (looked up): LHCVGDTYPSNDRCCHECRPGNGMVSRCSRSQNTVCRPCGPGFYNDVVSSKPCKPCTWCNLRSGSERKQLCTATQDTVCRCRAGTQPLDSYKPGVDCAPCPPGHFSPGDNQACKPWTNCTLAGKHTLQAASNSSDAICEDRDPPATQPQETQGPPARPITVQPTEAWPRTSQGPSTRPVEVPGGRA

human OX40-ECD.His P130A = target: T5, human OX40-ECD.His P130A (human, UniProt P43489 29-214)
T5 construct: extracellular domain; not shown: C-terminal His-tag
T5 sequence (looked up): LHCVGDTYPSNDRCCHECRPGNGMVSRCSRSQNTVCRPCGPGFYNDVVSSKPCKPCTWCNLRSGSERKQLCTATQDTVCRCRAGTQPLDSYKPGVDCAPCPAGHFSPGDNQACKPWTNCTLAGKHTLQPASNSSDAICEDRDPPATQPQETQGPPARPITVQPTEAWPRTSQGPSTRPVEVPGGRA

human OX40-ECD.His W144A = target: T6, human OX40-ECD.His W144A (human, UniProt P43489 29-214)
T6 construct: extracellular domain; not shown: C-terminal His-tag
T6 sequence (looked up): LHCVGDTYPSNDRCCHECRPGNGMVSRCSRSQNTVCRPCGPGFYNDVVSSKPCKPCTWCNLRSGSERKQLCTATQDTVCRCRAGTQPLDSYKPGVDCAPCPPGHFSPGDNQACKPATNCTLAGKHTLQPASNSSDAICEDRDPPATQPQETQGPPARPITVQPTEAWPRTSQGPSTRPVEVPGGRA

human OX40-ECD.His R55A = target: T7, human OX40-ECD.His R55A (human, UniProt P43489 29-214)
T7 construct: extracellular domain; not shown: C-terminal His-tag
T7 sequence (looked up): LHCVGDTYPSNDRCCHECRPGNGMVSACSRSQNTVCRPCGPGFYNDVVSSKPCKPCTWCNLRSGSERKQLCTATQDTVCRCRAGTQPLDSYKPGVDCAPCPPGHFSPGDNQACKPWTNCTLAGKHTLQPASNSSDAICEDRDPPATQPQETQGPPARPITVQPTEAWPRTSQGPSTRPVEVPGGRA

human OX40-ECD.His S77A = target: T8, human OX40-ECD.His S77A (human, UniProt P43489 29-214)
T8 construct: extracellular domain; not shown: C-terminal His-tag
T8 sequence (looked up): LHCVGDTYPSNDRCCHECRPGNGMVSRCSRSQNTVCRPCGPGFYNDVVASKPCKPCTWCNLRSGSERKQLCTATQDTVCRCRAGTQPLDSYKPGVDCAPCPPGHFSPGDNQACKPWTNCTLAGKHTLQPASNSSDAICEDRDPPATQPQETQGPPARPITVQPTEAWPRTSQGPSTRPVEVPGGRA

human OX40-ECD.His D170A = target: T9, human OX40-ECD.His D170A (human, UniProt P43489 29-214)
T9 construct: extracellular domain; not shown: C-terminal His-tag
T9 sequence (looked up): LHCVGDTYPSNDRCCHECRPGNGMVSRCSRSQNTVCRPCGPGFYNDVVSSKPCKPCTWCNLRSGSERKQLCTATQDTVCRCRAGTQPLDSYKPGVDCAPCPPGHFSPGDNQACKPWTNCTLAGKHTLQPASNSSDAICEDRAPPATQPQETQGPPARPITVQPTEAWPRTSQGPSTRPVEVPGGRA

human OX40-ECD.His R110A = target: T10, human OX40-ECD.His R110A (human, UniProt P43489 29-214)
T10 construct: extracellular domain; not shown: C-terminal His-tag
T10 sequence (looked up): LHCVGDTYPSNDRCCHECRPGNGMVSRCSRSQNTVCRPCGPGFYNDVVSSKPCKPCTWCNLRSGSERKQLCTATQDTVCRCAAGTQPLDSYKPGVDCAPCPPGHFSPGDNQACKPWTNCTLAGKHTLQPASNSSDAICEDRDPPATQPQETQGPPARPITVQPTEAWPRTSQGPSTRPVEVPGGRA

- Fold Change (human OX40-ECD.His R108A): 0.981
- Fold Change (human OX40-ECD.His T113A): 0.784
- Fold Change (human OX40-ECD.His V106A): 0.662
- Fold Change (human OX40-ECD.His P157A): 0.992
- Fold Change (human OX40-ECD.His P130A): 1.01
- Fold Change (human OX40-ECD.His W144A): 0.881
- Fold Change (human OX40-ECD.His R55A): 0.976
- Fold Change (human OX40-ECD.His S77A): 0.879
- Fold Change (human OX40-ECD.His D170A): 1.01
- Fold Change (human OX40-ECD.His R110A): 0.955
B1: 1.134.9-u1-IgG1L (antibody, V domains shown)
VH: QVQLQESGPGLVKPSGTLSLTCAVSGGSISSYNWWSWVRQPPGKGLEWIGEIYHGGNTNYNPSLKSRVTMSVDNSKNQFSLKLSSVTAADTAVYYCARAPGDWGGSPYFDFWGQGTLVTVSS
VL: SSELTQDPAVSVALGQTVRITCQGDNLRTYYASWYQQKPGQAPILLIYGRNKRPSGIPDRFSGSSSGNTASLTITGAQAEDEAAYYCNSRDSSGNPVVFGGGTKLTVL
notes: fully human IgG1, lambda
